Columns and labels:
[1] = target: Cx. quinquefasciatus BBMV (brush border membrane vesicles of Culex quinquefasciatus larvae; toxin receptors on them not identified) (Culex quinquefasciatus); test: saturation binding of 125I-toxin to BBMV, Hill fit (repeats Table 3); design: Bmax: unit not given here
[2] = target: Cx. quinquefasciatus BBMV (brush border membrane vesicles of Culex quinquefasciatus larvae; toxin receptors on them not identified) (Culex quinquefasciatus); test: saturation binding of 125I-toxin to BBMV, Hill fit
[3] = target: An. quadrimaculatus BBMV (brush border membrane vesicles of Anopheles quadrimaculatus larvae; toxin receptors on them not identified) (Anopheles quadrimaculatus); test: saturation binding of 125I-toxin to BBMV, Hill fit
[4] = target: Ae. aegypti BBMV (brush border membrane vesicles of Aedes aegypti larvae; toxin receptors on them not identified) (Aedes aegypti); test: saturation binding of 125I-toxin to BBMV, Hill fit
[5] = target: Cx. quinquefasciatus BBMV (brush border membrane vesicles of Culex quinquefasciatus larvae; toxin receptors on them not identified) (Culex quinquefasciatus); test: saturation binding of 125I-toxin to BBMV, Hill fit; design: Bmax: unit not given here

B1: 4BRA (Cry4Ba with R203 mutated to A, trypsin-activated toxin) (protein)
chain: AINSSSVSTALKVAGAILKFVNPPAGTVLTVLSAVLPILWPTNTPTPERVWNDFMTNTGNLIDQTVTAYVRTDANAKMTVVKDYLDQYTTKFNTWKREPNNQSYRTAVITQFNLTSAKLRETAVYFSNLVGYELLLLPIYAQVANFNLLLIRDGLINAQEWSLAASAGDQLYNTMVQYTKEYIAHSITWYNKGLDVLRNKSNGQWITFNDYKREMTIQVLDILALFASYDPRRYPADKIDNTKLSKTEFTREIYTALVESPSSKSIAALEAALTRDVHLFTWLKRVDFWTNTIYQDLRFLSANKIGFSYTNSSAMQESGIYGSSGFGSNLTHQIQLNSNVYKTSITDTSSPSNRVTKMDFYKIDGTLASYNSNITPTPEGLRTTFFGFSTNENTPNQPTVNDYTHILSYIKTDVIDYNSNRVSFAWTHKIVDPNNQIYTDAITQVPAVKSNFLNATAKVIKGPGHTGGDLVALTSNGTLSGRMEIQCKTSIFNDPTRSYGLRIRYAANSPIVLNVSYVLQGVSRGTTISTESTFSRPNNIIPTDLKYEEFRYKDPFDAIVPMRLSSNQLITIAIQPLNMTSNNQVIIDRIEIIPITQSVLDET
modifications: 125I-iodinated (iodo-bead, sites not stated) where used as labelled toxin
With B1 the Bmax [1] was 13.1, the K′D (composite dissociation constant) [1] was 6.9 nM and the Bmax [2] was 13.1 fmol/µg. The K′D (composite dissociation constant) [2] was 6.9 nM, the Bmax [3] was 35.2 fmol/µg and the K′D (composite dissociation constant) [3] was 3.1 nM. For the same binder, the Bmax [4] was 17.2 fmol/µg and the K′D (composite dissociation constant) [4] was 0.5 nM.

B2: 4BL3PAT (4BRA with D454 replaced with P and AT inserted after position 454, loop 3 of domain II) (protein)
chain: AINSSSVSTALKVAGAILKFVNPPAGTVLTVLSAVLPILWPTNTPTPERVWNDFMTNTGNLIDQTVTAYVRTDANAKMTVVKDYLDQYTTKFNTWKREPNNQSYRTAVITQFNLTSAKLRETAVYFSNLVGYELLLLPIYAQVANFNLLLIRDGLINAQEWSLAASAGDQLYNTMVQYTKEYIAHSITWYNKGLDVLRNKSNGQWITFNDYKREMTIQVLDILALFASYDPRRYPADKIDNTKLSKTEFTREIYTALVESPSSKSIAALEAALTRDVHLFTWLKRVDFWTNTIYQDLRFLSANKIGFSYTNSSAMQESGIYGSSGFGSNLTHQIQLNSNVYKTSITDTSSPSNRVTKMDFYKIDGTLASYNSNITPTPEGLRTTFFGFSTNENTPNQPTVNDYTHILSYIKTDVIPATYNSNRVSFAWTHKIVDPNNQIYTDAITQVPAVKSNFLNATAKVIKGPGHTGGDLVALTSNGTLSGRMEIQCKTSIFNDPTRSYGLRIRYAANSPIVLNVSYVLQGVSRGTTISTESTFSRPNNIIPTDLKYEEFRYKDPFDAIVPMRLSSNQLITIAIQPLNMTSNNQVIIDRIEIIPITQSVLDET
modifications: 125I-iodinated (iodo-bead, sites not stated) where used as labelled toxin
For B2, the Bmax [5] was 9.3 and the K′D (composite dissociation constant) [5] was 0.9 nM.

Reference: patent US20050124803A1
